Results from PMC8326427.

Molecular target: T1, rDHX36 (G4R1/RHAU) (UniProt Q9H2U1 1-1008)
T1 sequence: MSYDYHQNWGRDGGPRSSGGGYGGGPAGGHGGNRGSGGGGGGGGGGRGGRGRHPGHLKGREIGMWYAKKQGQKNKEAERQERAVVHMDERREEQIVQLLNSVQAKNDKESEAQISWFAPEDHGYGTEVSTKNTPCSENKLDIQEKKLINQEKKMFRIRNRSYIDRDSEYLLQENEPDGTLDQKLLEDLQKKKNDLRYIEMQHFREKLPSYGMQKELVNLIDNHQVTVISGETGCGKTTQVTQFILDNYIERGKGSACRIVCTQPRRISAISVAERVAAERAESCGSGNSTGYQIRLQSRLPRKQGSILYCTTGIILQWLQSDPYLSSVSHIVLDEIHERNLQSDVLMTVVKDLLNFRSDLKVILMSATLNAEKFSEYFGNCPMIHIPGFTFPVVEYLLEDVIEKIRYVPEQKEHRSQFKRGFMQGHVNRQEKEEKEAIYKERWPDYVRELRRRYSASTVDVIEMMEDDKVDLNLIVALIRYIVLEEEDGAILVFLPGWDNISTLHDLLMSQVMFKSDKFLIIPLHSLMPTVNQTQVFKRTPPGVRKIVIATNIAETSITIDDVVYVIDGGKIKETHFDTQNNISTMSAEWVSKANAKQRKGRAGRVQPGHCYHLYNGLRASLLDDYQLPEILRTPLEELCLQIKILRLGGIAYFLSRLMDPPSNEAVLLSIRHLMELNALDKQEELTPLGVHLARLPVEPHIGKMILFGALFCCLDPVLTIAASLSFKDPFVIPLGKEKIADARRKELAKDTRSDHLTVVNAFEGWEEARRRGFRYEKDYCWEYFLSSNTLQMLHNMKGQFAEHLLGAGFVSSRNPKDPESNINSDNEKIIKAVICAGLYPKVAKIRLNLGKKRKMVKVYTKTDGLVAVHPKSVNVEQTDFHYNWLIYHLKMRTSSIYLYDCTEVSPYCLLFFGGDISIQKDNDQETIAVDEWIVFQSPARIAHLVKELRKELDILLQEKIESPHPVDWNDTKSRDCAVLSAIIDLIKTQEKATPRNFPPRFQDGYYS
Experiment: EMSA

GGGGCCGGGGCCGGGGCCGGGGCCGGGGCCGTTAGAATTTTT (structured_DNA) [(G4C2)5-DNA, annealed with KCl (G4)]: binds.
